In doi:10.1101/2020.11.10.376558:

System: GST-N571 (CIZ1 N-terminal fragment with PLD1 and PLD2) (Mus musculus)
Assay: EMSA

Row | Substance | K half
1 | Xist repeat A sense | 200 nM
2 | Xist repeat E proximal (sense) | 100 nM
